{
  "source": "the DeepSol protein solubility set",
  "assay": "soluble on expression in E. coli; label from the status in PepcDB or PDB records",
  "data": [
    {"sequence": "MVSYQILLLLVSILPLTYSIRTSKWHFSGKLLCPLYTFKYHLEVFEEDYFRKTDDLLTNQTEVSSISPHLYKVDAEETDDGLDFGRHFEIYMLIIHDCNPDRYVKSLKVDWGKYHIDIEFVTFYALKFEIFSEVSEVKDIDVFGKGSAL", "values": [
      {"measurement": "soluble on expression in E. coli", "result": "not soluble"}
    ]},
    {"sequence": "MGKNLQALAQLYKNALLNDVLPFWENHSLDSEGGYFTCLDRQGKVYDTDKFIWLQNRQVWTFSMLCNQLEKRENWLKIARNGAKFLAQHGRDDEGNWYFALTRGGEPLVQPYNIFSDCFAAMAFSQYALASGEEWAKDVAMQAYNNVLRRKDNPKGKYTKTYPGTRPMKALAVPMILANLTLEMEWLLPQETLENVLAATVQEVMGDFLDQEQGLMYENVAPDGSHIDCFEGRLINPGHGIEAMWFIMDIARRKNDSKTINQAVDVVLNILNFAWDNEYGGLYYFMDAAGHPPQQLEWDQKLWWVHLESLVALAMGYRLTGRDACWAWYQKMHDYSWQHFADPEYGEWFGYLNRRGEVLLNLKGGKWKGCFHVPRAMYLCWQQFEALS", "values": [
      {"measurement": "soluble on expression in E. coli", "result": "soluble"}
    ]},
    {"sequence": "MGSDKIHHHHHHMKTDTEWLLCDFHVHTNMSDGHLPLGEVVDLFGKHGVDVVSITDHIVDRRTLEQRKRNGEPLGAITEDKFQDYLKRLWREQKRAWEEYGMILIPGVEITNNTDLYHIVAVDVKEYVDPSLPVEEIVEKLKEQNALVIAAHPDRKKQDEEHLSWYLWANMERFKDTFDAWEIANRDDLFNSVGVKKYRYVANSDFHELWHVYSWKTLVKSEKNIEAIKEAIRKNTDVAIYLMRKNRLSSLSDVI", "values": [
      {"measurement": "soluble on expression in E. coli", "result": "soluble"}
    ]},
    {"sequence": "MITLEQKLEQYKHTYVQLKGELKWKTSDSRTGMMIAAMYAGSDKLFDLGRFLEISSYIKNQVGMFSYLKSYHRFVVAATLDIHFTDYKEAFRKFLDLYEQLVTGGFSRSIFTYLAAAVLLTEENEQHGAHIQRSMQVYKRMKKDHLFLTSTNDYPLAVLLAGQSEHVETLMDRVERLYQKLATAGLRKGNDLQFLSHILSLKKDVREELLVAKCTNIWNLLKQEKVKVKQMHYPAIGLLALLEDGEKEIHSIRAFIEKLQGDKLFRWHTDTNILIAIQLFVSQKGEESKATNTGLQTMIEVLIQAQQAAMMATIAASSAATSSASSSS", "values": [
      {"measurement": "soluble on expression in E. coli", "result": "not soluble"}
    ]},
    {"sequence": "FNDWYVSARANFTYNRNKKLYDDKPTPIWPYQSEAGFAYRQQRGLIALGLFESEEDIANSPKQNFGNVRPGDIKYKDINGDNVIDAYDKVAIGYTDVPEINYGFGISLGWKGFDASLFMQGVGNVTRIIGGDALYGASDNIERLGQIYADVAEKRWTTSNPNPNATYPRLSMSKVENNLQPSTYWQRNMSFLRLKNVEIGYTLPKHIYKRLGMSSIRVYAQGVNLLTFSKFKLWDPELDSNYGNIYPQMRTITLGLNLNF", "values": [
      {"measurement": "soluble on expression in E. coli", "result": "not soluble"}
    ]},
    {"sequence": "MKLGNVVIVLGKRLVNNQLSAEGISRVEALAAKIREMPMENTALVFCGGKTQGQSISEADAMYAYFQTLNTSLAKPFPTSQTLLENRSLNTFENMRNAAKVLCESGLFPLPSQATVEVILLSNVYHLERILEIQTLMDEQGLLRVIKSQCASVGLDLHISLDIQKHISVPYPHQGPQAEAFLLLDELTTYRVYLEGVKSGAFQRDLTSVRAQPLLRAKQAISQLRALPLEMDVLQQIAEMKKAIEMTAFDESVATAERALEMFHPILTALNRRLDPESIQAAALEHHHHHH", "values": [
      {"measurement": "soluble on expression in E. coli", "result": "soluble"}
    ]},
    {"sequence": "MSLGNPAAMLAAYNTSTQVAPQPQLGPRAGEVQLSSEQQAMIDYVLAGKDVIVDATVGSGKTTAIQRLCSIMGADHDVLYLTYSKLLKVDAQQRVRGAKVQNYHGIVYPHLLKAGIKCGISESIREFNKNFKHISRTFPSYDLLVIDEYQDINEDYAELLRNIKSVNPLMQIVMVGDLEQKVRSDTTLDPQEFAAQLCEDPVFAPFTQSFRIGEAMAAGLADAWNKPIVGANTAQQIEYRSFAEAVVLIQSTEPSKLLCLGSRNGQMSDALNVVERKSPAKFNKKTVFASIRDGDSQIAHPNDAAVFTTFDSSKGLERDTCVVFDYDEEFWDMRLGYPNVDPVVMRNVFLVAASRGKNKVVFVRSDSLQAAYEAGADWAAGLAVGVVDNNTEVAPEVDAHTPAEESKGDVGEVQSQIERMMGFIPVSVFKELPELAPSEYARPISVTEAFDFKYAENVEACFDLLDVKRLDNGKGAAIEVNRSDGLIDLSPTVGNFQEAVFFKDYNVHTALSAYPSQFAKNLKRLVKKNNSVWRNCLIVTAASTEQMRYVDQVRSSIPVAAEKALVSRLSTRLNADSRNQIPLILDGEAVQSKVVRTPMSFAGVADAVHKGVLYELKFVSELTHPMFLQLAMYLVMSGMKDGILWNTRTDEAWQVRVPDPKRFLNAVVLCVSKQDYRVGNFDLPSTGGEGHHHHHH", "values": [
      {"measurement": "soluble on expression in E. coli", "result": "soluble"}
    ]},
    {"sequence": "MPVSLLKAHEAEMWEVHFHPSNPDHLFTCSEDGSLWHWDASTNAPEKSSLFHQGGRSSTFLSHSLSNQAGVHQSLVSSWLSTDPAKDRIEITSLLPSRTLSVNSLDVLGPCLVCGTDAEAIYVTRQLFS", "values": [
      {"measurement": "soluble on expression in E. coli", "result": "not soluble"}
    ]},
    {"sequence": "MEEAKNPWLTGNLVEEANSQGIIQNRSIFNLFANTNIYIFFRHWTTIYERLLEIKQMNERVTKEINTRSTVTFAKDLDLLSSQLSEMGLDFVGEDAYKQVLRLSRRLINGDLEHQWFEESLRQAYNNKAFKLYTIDKVTQSLVKHAHTLMTDA", "values": [
      {"measurement": "soluble on expression in E. coli", "result": "not soluble"}
    ]},
    {"sequence": "MAHHHHHHMRRTIRVFTGKLLWEDFTNTRLITINREKALNSMDLEMVKAMQRAYVHEPHAKGDSALFVVKGAGNKSFCAGGDIVSLKDRYDVAAEFFYTEYQMNYHILTMPNPQVSLWDGYVMGGGVGVSVHGRYRVASERAVFAMPETAIGLFPDVGASWFLPRLKMKGLGLYLGLTGARLKGADVAHTGLATHYVPSARFCELEERLCHIDDPAKVEACLEEFAVRDLPPFTLEPHRETIEKSFALEEKTTVEGIYESLSADGGEFAKGTINTLNRMAPTSLRVSLEMQKRGVKMTDPADVFRMDYIGSLRTHANSDFHEGVRALLVDKTKDPKWKPAKLSDVTADYVEAYFKPMGNQARQWHPTVPY", "values": [
      {"measurement": "soluble on expression in E. coli", "result": "soluble"}
    ]},
    {"sequence": "MGSDKIHHHHHHMKTKMPEMLSFISEEAVSRKMTSEEIAAHFGYDKHHFSRKFKEINGFSVVEFLSSLKVEKAIIELNEEKRILDLQEHSGFESSGSFTNTFKKYTGSSPRKYKTEMNDIFYDMKRFENDNKDKSIAHFQEKNDSFCTVTIDVPDEFEKGIIFIGLFRTLIPNHMPISGLATKNLIGNQLKNIPSGDYYLLACAISQSNNILSYFNLSNSLRGKEDEKLSFPKCSGKHYAIKLREPIPEDPPILANVGKILISCLKNTI", "values": [
      {"measurement": "soluble on expression in E. coli", "result": "not soluble"}
    ]},
    {"sequence": "MGSDKIHHHHHHMLLQTKSNEMLLEKVMDEFSAATSLASVVVDIHGTEVSRLCNFTPFCQLIRSNPKYRSLCQKCDMFGGLEASKTGKPLIYRCHAGLTDFSVPIVVENQLSGFLLSGQVICEENSEVGNIQTEETDWKNDKDLISAFRSVPVFSSKKINSSAEMLTIISQYYLKSEMEKSREEQKQKIVFHHNKPTHHEDNKEIRKALKYIEKNLNRPITLDEVASHVYLSSYYFSKLFKKEMNVNFINYVNQKKMSLAKDMLKNPRWSIDNVARNLGFTQTSYFCKVFRKEFDVTPKGYRETLK", "values": [
      {"measurement": "soluble on expression in E. coli", "result": "not soluble"}
    ]},
    {"sequence": "MIMFNYQQTSQSCVKCGKCIPSCTIYNIHPDEVTSPRGFIDLLGAYQRGELELDKNAKDIFEKCFLCTNCTYVCPNLLPTDQVIENVRAEIAQKFGIAWFKRAYFFLLRNRWLMDWGLEHHHHHH", "values": [
      {"measurement": "soluble on expression in E. coli", "result": "not soluble"}
    ]},
    {"sequence": "MGSDKIHHHHHHMSTRESRHPVVSRSQWLAARYYLWLHEKAFTHHRDALTAARRALPWVKVEQDYRFFGPNGALSLADLFAGRSQLLLYHFMFAEGWSEGCPGCSFLADHYDGANLHLAHHDVSLVAVSRAPYAEFQAFRQRMGWQFPWYSSHGSDFNEDFGVSVGSEGQRQYNYEPYEGNESELPGLSAFFREGDGSVYHTYSTYARGLDILVNTYNFLDIAPLGRNEGGTMDWVRHHDRYEGQPDKPHCCHR", "values": [
      {"measurement": "soluble on expression in E. coli", "result": "not soluble"}
    ]},
    {"sequence": "MGSDKIHHHHHHMMRVEHLAYQFSRNGQPFFKDVSFQLKSPGVNFLIGQNGAGKTTLADIITGLRPAQGELDLPKAAIYLNQQLPLLSSIRVRDVAQLVLGIEHGRLRLTTEQLQQLIDTQAYQFLAPLWDQHYGQLSGGQRKLVQLLLFLQVDRELIVLDEPTAAVDRENVQLLFQVMQAHPERTYLMITHDVRDLHAFTDYQVLWLNDRQVTTLSKRTFEAASAQADFVALFKTQ", "values": [
      {"measurement": "soluble on expression in E. coli", "result": "not soluble"}
    ]},
    {"sequence": "MGSDKIHHHHHHMRVLVVGLGNMGQSHALAHHAADGVEIIGLVNRSSRDLPGALQGYPMIQTVEEGLALSPDLVVIATYSDTHADLACQAMRAGAHVFVEKPLATTVADAKGVVETARETGQKLVVGYILRHHPSWMRLIEEARALGGPYVFRMNLNQQSTGAEWATHKALMQTTSPIVDCGVHYVDVWCQITDARPVAVHGMGLRLSDEIAPEMYNYGQFQVFFDDGSVGWYEAGWGPMMSEVAFFVKDVISPNGAVSITEADKAGSADIDGHTKVGGVLVHRPGDDQLIEFEGEPGHQELCDAEQAFMRRAIAEDLDLSRHMEDAVRSLAICLAADESIRTGQRVTL", "values": [
      {"measurement": "soluble on expression in E. coli", "result": "not soluble"}
    ]},
    {"sequence": "MGSDKIHHHHHHMLSMKNIVGKPQTIKKVNEDLIKNIIKNEGPITKPEISSITELSLATVNKIVEQLALKNEVKVSGLSESTGGRRAQLFEINANLEHIIALYYYRNCCIGVVANLLGEIIYQEEFNIRMDTYENVNQDTFFVIDTLIKKEKGNNIRAIGIGVPGVVKKGVVKNIPTIKSWEGINLENLIKSKYNTKVFIENDTNITTIGIYQKQYKDKYKNMALMYLEDGIGSGIVINGELYLGSTNFAGELSYLNIEFGKYNSNNLNLEDYIMSLRKRYLESKDNKFKKEILSIISNFIRTLVCVLNPQAMIIQCSILTKSDMEFIEKDVSNNVGEENFPKLIKVESLREGSINGVISMCLKETDYQYSLSNKKGGY", "values": [
      {"measurement": "soluble on expression in E. coli", "result": "not soluble"}
    ]},
    {"sequence": "MTTNRETVLSMAKRKRSVVAINASGWRSNGEVMGLQIKDGVLYKDYDAAGYTGAEACVFFDDGTMKVYGNREVDADILISKGARNSFAFGIWLVKDSKPRTAQMTTWADLNVKHPRQAIGQRSDGTLVIITVDGRSLRSSGITAYDMPSLFLSEGCINAFLLDGGGSSQTAVEGKYINNISDGIERAVVDTLTISYPDDLEHHHHHH", "values": [
      {"measurement": "soluble on expression in E. coli", "result": "not soluble"}
    ]}
  ]
}
